Test results from patent US20230174598A1 (UNIVERSITY OF FLORIDA RESEARCH FOUNDATION, published 2023).
Changes are numbered by the printed parent chain. Names and notes keep the numbering of the source. Values belong to the molecule of their own block, whether it stands above or below them.

How the values were obtained:
bovine enolase-1 [1] = molecular target: T1, bovine enolase-1 (bovine, UniProt Q9XSJ4 1-434, AlexaFluor-546 maleimide on reactive cysteines (pulldown assay only; unlabeled in the quench and activity assays)); assay: KI quench protection of mBBr-labeled arrestin-1; 0.25 µM arrestin-1, 5 µM (20-fold) enolase-1
T1 sequence (Q9XSJ4 whole entry): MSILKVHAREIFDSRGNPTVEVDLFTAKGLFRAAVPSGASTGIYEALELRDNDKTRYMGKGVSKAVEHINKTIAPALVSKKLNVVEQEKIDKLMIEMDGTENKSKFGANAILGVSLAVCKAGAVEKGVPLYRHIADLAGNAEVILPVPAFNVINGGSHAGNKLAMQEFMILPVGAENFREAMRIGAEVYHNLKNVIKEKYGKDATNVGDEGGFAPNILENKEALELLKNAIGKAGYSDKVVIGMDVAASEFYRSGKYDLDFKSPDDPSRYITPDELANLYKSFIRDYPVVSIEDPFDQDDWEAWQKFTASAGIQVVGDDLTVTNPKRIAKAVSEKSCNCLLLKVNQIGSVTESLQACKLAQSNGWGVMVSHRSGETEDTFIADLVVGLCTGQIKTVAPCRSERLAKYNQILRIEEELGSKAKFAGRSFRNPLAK
Procedure: C. Quenching assay. Cysteine mutants of arrestin-1 were labeled with monobromobimane (mBBr, ThermoFisher), reacting the arrestin-1 protein with 100-fold molar excess of the fluorescent label for two hours at room temperature. The unreacted label was removed by dialyzing against three sequential changes of 500-volumes of LAP200 buffer. […] Fluorescence quenching of the mBBr fluorophore was performed using 0.25 μM mBBr-labeled arrestin-1 with 100 mM potassium iodide in the presence or absence of 5 μM bovine enolase-1 that had been heterologously expressed and purified as previously described for arrestin-1, monitoring fluorescence emission at 470 nm. To determine the degree to which enolase-1 shielded a residue from quenching by potassium iodide, a protection factor was calculated as follows: […]
C. Mapping interaction of arrestin-1 with enolase-1. […] The fluorescence emission of the mBBr-labeled arrestin-1 with and without potassium iodide was measured to determine the range of quenching by KI. The fluorescence emission quench by KI with and without enolase-1 was then measured. A quench protection factor was calculated as described in the experimental procedures (Table 2). […] When mapped onto the surface of the arrestin-1 structure, these residues largely mapped to a single surface along the “bottom” of the arrestin protein (FIG. 2B).

bovine enolase-1 [2] = molecular target: T1, bovine enolase-1; assay: cell-based or functional assay

Molecule: V139C arrestin-1 (bovine, His(6), C63A/C143A) labeled with monobromobimane (from UniProt P08168 2-404)
F(A+E+K) (fluorescence with enolase-1 and KI) (bovine enolase-1 [1]): 778
Pf (quench protection factor) (bovine enolase-1 [1]): -0.001

Molecule: I72C arrestin-1 (bovine, His(6), C63A/C143A) labeled with monobromobimane (from UniProt P08168 2-404)
F(A+E+K) (fluorescence with enolase-1 and KI) (bovine enolase-1 [1]): 630
Pf (quench protection factor) (bovine enolase-1 [1]): 0.002

Molecule: W194C arrestin-1 (bovine, His(6), C63A/C143A) labeled with monobromobimane (from UniProt P08168 2-404)
F(A+E+K) (fluorescence with enolase-1 and KI) (bovine enolase-1 [1]): 14000
Pf (quench protection factor) (bovine enolase-1 [1]): 0.012

Molecule: Y25C arrestin-1 (bovine, His(6), C63A/C143A) labeled with monobromobimane (from UniProt P08168 2-404)
F(A+E+K) (fluorescence with enolase-1 and KI) (bovine enolase-1 [1]): 600
Pf (quench protection factor) (bovine enolase-1 [1]): -0.011

Molecule: S199C arrestin-1 (bovine, His(6), C63A/C143A) labeled with monobromobimane (from UniProt P08168 2-404)
F(A+E+K) (fluorescence with enolase-1 and KI) (bovine enolase-1 [1]): 636
Pf (quench protection factor) (bovine enolase-1 [1]): -0.001

Molecule: R18C arrestin-1 (bovine, His(6), C63A/C143A) labeled with monobromobimane (from UniProt P08168 2-404)
F(A+E+K) (fluorescence with enolase-1 and KI) (bovine enolase-1 [1]): 963
Pf (quench protection factor) (bovine enolase-1 [1]): -0.005

Molecule: S251C arrestin-1 (bovine, His(6), C63A/C143A) labeled with monobromobimane (from UniProt P08168 2-404)
F(A+E+K) (fluorescence with enolase-1 and KI) (bovine enolase-1 [1]): 730
Pf (quench protection factor) (bovine enolase-1 [1]): 0.011

Molecule: Y125C arrestin-1 (bovine, His(6), C63A/C143A) labeled with monobromobimane (from UniProt P08168 2-404)
F(A+E+K) (fluorescence with enolase-1 and KI) (bovine enolase-1 [1]): 14000
Pf (quench protection factor) (bovine enolase-1 [1]): 0.012

Molecule: S231C arrestin-1 (bovine, His(6), C63A/C143A) labeled with monobromobimane (from UniProt P08168 2-404)
F(A+E+K) (fluorescence with enolase-1 and KI) (bovine enolase-1 [1]): 695
Pf (quench protection factor) (bovine enolase-1 [1]): 0.002

B1: E361G arrestin-1 variant (bovine) (other)
chain: MHHHHHHKANKPAPNHVIFKKISRDKSVTIYLGKRDYIDHVERVEPVDGVVLVDPELVKGKRVYVSLTCAFRYGQEDIDVMGLSFRRDLYFSQVQVFPPVGASGATTRLQESLIKKLGANTYPFLLTFPDYLPCSVMLQPAPQDVGKSCGVDFEIKAFATHSTDVEEDKIPKKSSVRLLIRKVQHAPRDMGPQPRAEASWQFFMSDKPLRLAVSLSKEIYYHGEPIPVTVAVTNSTEKTVKKIKVLVEQVTNVVLYSSDYYIKTVAAEEAQEKVPPNSSLTKTLTLVPLLANNRERRGIALDGKIKHEDTNLASSTIIKEGIDKTVMGILVSYQIKVKLTVSGLLGELTSSEVATEVPFRLMHPQPGDPDTAKESFQDENFVFEEFARQNLKDAGEYKEEKTDQEAAMDE
% inhibition of enolase-1 catalytic activity (bovine enolase-1 [2]): 18.3%

B3: E361A arrestin-1 variant (bovine) (other)
chain: B1 chain with G367A
% inhibition of enolase-1 catalytic activity (bovine enolase-1 [2]): 21.1%

B4: D362A arrestin-1 variant (bovine) (other)
chain: B1 chain with G367E, D368A
% inhibition of enolase-1 catalytic activity (bovine enolase-1 [2]): 22.2%

B6: K53C arrestin-1 (bovine, His(6), C63A/C143A) labeled with monobromobimane (other)
chain: B1 chain with K59C, C69A, C149A, G367E
modifications: monobromobimane (mBBr) on Cys 53
notes: Cysteine-substitution mutant, made in Pichia pastoris
F(A+E+K) (fluorescence with enolase-1 and KI) (bovine enolase-1 [1]): 11000
Pf (quench protection factor) (bovine enolase-1 [1]): 0.314

B8: E50C arrestin-1 (bovine, His(6), C63A/C143A) labeled with monobromobimane (other)
chain: B1 chain with E56C, C69A, C149A, G367E
modifications: monobromobimane (mBBr) on Cys 50
notes: as for B6
F(A+E+K) (fluorescence with enolase-1 and KI) (bovine enolase-1 [1]): 8140
Pf (quench protection factor) (bovine enolase-1 [1]): 0.297

B11: V281C arrestin-1 (bovine, His(6), C63A/C143A) labeled with monobromobimane (other)
chain: B1 chain with C69A, C149A, V287C, G367E
modifications: monobromobimane (mBBr) on Cys 281
notes: as for B6
F(A+E+K) (fluorescence with enolase-1 and KI) (bovine enolase-1 [1]): 2440
Pf (quench protection factor) (bovine enolase-1 [1]): 0.269

B12: D183C arrestin-1 (bovine, His(6), C63A/C143A) labeled with monobromobimane (other)
chain: B1 chain with C69A, C149A, D189C, G367E
modifications: monobromobimane (mBBr) on Cys 183
notes: as for B6
F(A+E+K) (fluorescence with enolase-1 and KI) (bovine enolase-1 [1]): 19200
Pf (quench protection factor) (bovine enolase-1 [1]): 0.787

B13: S210C arrestin-1 (bovine, His(6), C63A/C143A) labeled with monobromobimane (other)
chain: B1 chain with C69A, C149A, S216C, G367E
modifications: monobromobimane (mBBr) on Cys 210
notes: as for B6
F(A+E+K) (fluorescence with enolase-1 and KI) (bovine enolase-1 [1]): 8720
Pf (quench protection factor) (bovine enolase-1 [1]): 0.618

B14: K166C arrestin-1 (bovine, His(6), C63A/C143A) labeled with monobromobimane (other)
chain: B1 chain with C69A, C149A, K172C, G367E
modifications: monobromobimane (mBBr) on Cys 166
notes: as for B6
F(A+E+K) (fluorescence with enolase-1 and KI) (bovine enolase-1 [1]): 1040
Pf (quench protection factor) (bovine enolase-1 [1]): 0.026

B16: D362C arrestin-1 (bovine, His(6), C63A/C143A) labeled with monobromobimane (other)
chain: B1 chain with C69A, C149A, G367E, D368C
modifications: monobromobimane (mBBr) on Cys 362
notes: as for B6
F(A+E+K) (fluorescence with enolase-1 and KI) (bovine enolase-1 [1]): 5490
Pf (quench protection factor) (bovine enolase-1 [1]): 1.2

B18: K267C arrestin-1 (bovine, His(6), C63A/C143A) labeled with monobromobimane (other)
chain: B1 chain with C69A, C149A, K273C, G367E
modifications: monobromobimane (mBBr) on Cys 267
notes: as for B6
F(A+E+K) (fluorescence with enolase-1 and KI) (bovine enolase-1 [1]): 2850
Pf (quench protection factor) (bovine enolase-1 [1]): 0.484

B20: K28C arrestin-1 (bovine, His(6), C63A/C143A) labeled with monobromobimane (other)
chain: B1 chain with K34C, C69A, C149A, G367E
modifications: monobromobimane (mBBr) on Cys 28
notes: as for B6
F(A+E+K) (fluorescence with enolase-1 and KI) (bovine enolase-1 [1]): 17200
Pf (quench protection factor) (bovine enolase-1 [1]): 0.732

Second part, the molecule after the results:

F(A+E+K) (fluorescence with enolase-1 and KI) (bovine enolase-1 [1]): 953
Pf (quench protection factor) (bovine enolase-1 [1]): 0.134
Molecule: E393C arrestin-1 (bovine, His(6), C63A/C143A) labeled with monobromobimane (from UniProt P08168 2-404)

F(A+E+K) (fluorescence with enolase-1 and KI) (bovine enolase-1 [1]): 6160
Pf (quench protection factor) (bovine enolase-1 [1]): 0.073
Molecule: S86C arrestin-1 (bovine, His(6), C63A/C143A) labeled with monobromobimane (from UniProt P08168 2-404)

F(A+E+K) (fluorescence with enolase-1 and KI) (bovine enolase-1 [1]): 11500
Pf (quench protection factor) (bovine enolase-1 [1]): 0.002
Molecule: D317C arrestin-1 (bovine, His(6), C63A/C143A) labeled with monobromobimane (from UniProt P08168 2-404)

% inhibition of enolase-1 catalytic activity (bovine enolase-1 [2]): 20.7%
B2: D362G arrestin-1 variant (bovine) (other)
chain: B1 chain with G367E, D368G

% inhibition of enolase-1 catalytic activity (bovine enolase-1 [2]): 9%
B5: E361A/D362A arrestin-1 variant (bovine) (other)
chain: B1 chain with G367A, D368A

F(A+E+K) (fluorescence with enolase-1 and KI) (bovine enolase-1 [1]): 3680
Pf (quench protection factor) (bovine enolase-1 [1]): 0.772
B7: E302C arrestin-1 (bovine, His(6), C63A/C143A) labeled with monobromobimane (other)
chain: B1 chain with C69A, C149A, E308C, G367E
modifications: monobromobimane (mBBr) on Cys 302
notes: as for B6

F(A+E+K) (fluorescence with enolase-1 and KI) (bovine enolase-1 [1]): 1900
Pf (quench protection factor) (bovine enolase-1 [1]): 0.062
B9: V94C arrestin-1 (bovine, His(6), C63A/C143A) labeled with monobromobimane (other)
chain: B1 chain with C69A, V100C, C149A, G367E
modifications: monobromobimane (mBBr) on Cys 94
notes: as for B6

F(A+E+K) (fluorescence with enolase-1 and KI) (bovine enolase-1 [1]): 3460
Pf (quench protection factor) (bovine enolase-1 [1]): 0.109
B10: A113C arrestin-1 (bovine, His(6), C63A/C143A) labeled with monobromobimane (other)
chain: B1 chain with C69A, A119C, C149A, G367E
modifications: monobromobimane (mBBr) on Cys 113
notes: as for B6

F(A+E+K) (fluorescence with enolase-1 and KI) (bovine enolase-1 [1]): 16600
Pf (quench protection factor) (bovine enolase-1 [1]): 0.564
B15: R37C arrestin-1 (bovine, His(6), C63A/C143A) labeled with monobromobimane (other)
chain: B1 chain with R43C, C69A, C149A, G367E
modifications: monobromobimane (mBBr) on Cys 37
notes: as for B6

F(A+E+K) (fluorescence with enolase-1 and KI) (bovine enolase-1 [1]): 9500
Pf (quench protection factor) (bovine enolase-1 [1]): 1.08
B17: E218C arrestin-1 (bovine, His(6), C63A/C143A) labeled with monobromobimane (other)
chain: B1 chain with C69A, C149A, E224C, G367E
modifications: monobromobimane (mBBr) on Cys 218
notes: as for B6

F(A+E+K) (fluorescence with enolase-1 and KI) (bovine enolase-1 [1]): 11100
Pf (quench protection factor) (bovine enolase-1 [1]): 0.467
B19: R189C arrestin-1 (bovine, His(6), C63A/C143A) labeled with monobromobimane (other)
chain: B1 chain with C69A, C149A, R195C, G367E
modifications: monobromobimane (mBBr) on Cys 189
notes: as for B6
